The values that follow come from US20240269315A1, “DRUG CONJUGATE AND USE THEREOF” (priority 2021, published 2024).

The assay deals with T1, Trop2 (UniProt P09758 27-323, limits assumed).
T1 sequence (looked up): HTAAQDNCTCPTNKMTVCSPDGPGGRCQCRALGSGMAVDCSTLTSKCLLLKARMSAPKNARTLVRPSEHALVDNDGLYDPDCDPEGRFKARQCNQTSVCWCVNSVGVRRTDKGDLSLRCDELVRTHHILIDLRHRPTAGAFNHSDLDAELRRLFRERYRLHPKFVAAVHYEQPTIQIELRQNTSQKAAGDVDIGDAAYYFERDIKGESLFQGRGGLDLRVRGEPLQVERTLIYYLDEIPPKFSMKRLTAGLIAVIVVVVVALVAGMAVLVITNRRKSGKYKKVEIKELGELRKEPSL
The experiment in a line: cell-based or functional assay.

B1: ADC4 (antibody, human IgG1, kappa, V domains shown)
VH: QVQLQQSGSELKKPGASVKVSCKASGYTFTNYGMNWVKQAPGQGLKWMGWINTYTGEPTYTDDFKGRFAFSLDTSVSTAYLQISSLKADDTAVYFCARGGFGSSYWYFDVWGQGTLVTVSS
VL: DIQLTQSPSSLSASVGDRVSITCKASQDVSIAVAWYQQKPGKAPKLLIYSASYRYTGVPDRFSGSGSGTDFTLTISSLQPEDFAVYYCQQHYITPLTFGAGTKVEIKR
modifications: CB07-Exatecan on cysteine thiols after TCEP reduction; positions not given; DAR (p) 4.2 per antibody
In the case of B1, the “EC50 (ng/mL), growth inhibition of Trop2 positive MDA-MB-453 cells (CCK-8, 120 h)” value turned out to be 640 ng/mL; the “EC50 (ng/mL), growth inhibition of Trop2 positive MDA-MB-468 cells (CCK-8, 120 h)” value came to 158 ng/mL; the “EC50 (ng/mL), growth inhibition of Trop2 positive MX-1 cells (CCK-8, 120 h)” value amounted to 233 ng/mL.
